Data on two molecules can be found in patent publication US20240117033A1 (Harvard, published 2024).

Positions count from the first letter of the chain named.

Experiment [1] addresses T1, Mouse Mfsd2a, wild type (endogenous on brain endothelial cells of wildtype mice); stably expressed in HEK293 … (mouse, UniProt Q9DA75 1-534).
T1 construct: whole, on cells; also called endogenous Mfsd2a
T1 sequence (looked up): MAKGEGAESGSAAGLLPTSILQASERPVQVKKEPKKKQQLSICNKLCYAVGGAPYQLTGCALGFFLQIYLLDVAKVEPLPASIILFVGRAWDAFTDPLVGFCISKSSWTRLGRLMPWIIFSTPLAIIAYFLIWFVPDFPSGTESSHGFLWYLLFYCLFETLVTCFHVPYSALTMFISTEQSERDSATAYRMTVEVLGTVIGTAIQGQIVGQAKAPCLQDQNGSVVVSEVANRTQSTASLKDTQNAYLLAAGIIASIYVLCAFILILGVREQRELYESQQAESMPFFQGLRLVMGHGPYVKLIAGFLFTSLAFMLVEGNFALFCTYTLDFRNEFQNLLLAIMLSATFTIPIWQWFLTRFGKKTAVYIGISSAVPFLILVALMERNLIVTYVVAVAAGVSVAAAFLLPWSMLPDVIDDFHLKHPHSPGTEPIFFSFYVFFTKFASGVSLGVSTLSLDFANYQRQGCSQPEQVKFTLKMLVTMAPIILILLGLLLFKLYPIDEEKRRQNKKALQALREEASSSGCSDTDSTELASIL
The experiment can be described thus: IV injection into adult mice (10 ug/ml), brain sections stained with fluorescent secondary antibody. Here is the method: The specificity of the antibody described herein (D1, with CDRs of SEQ ID NOs: 1-6) was tested. IV-injection of D1 antibody or control antibody was IV injected at 10 ug/ml to adult mice. The antibodies were permitted to circulate for 15 minutes, followed by 10 ml PBS perfusion and fixation. Brains were sectioned and stained with fluorescent labeled secondary antibody. […] It specifically binds to the endogenous Mfsd2a that is expressed on the luminal side of the brain endothelial cell plasma membrane in the wildtype mice, absence in the Mfsd2a knockout mice. Control antibody injected animals show no staining.

The target in experiment [2] is T2, Mus musculus Mfsd2a with a single point mutation (Q67H), purified in LMNG/CHS/GDN detergent (Mus musculus, UniProt Q9DA75 1-534, limits assumed).
T2 construct: Membrane transporter expressed in HEK293S cells and purified in detergent; also called mouse Mfsd2a Q67H
T2 sequence (looked up): T1 sequence (looked up) with Q67H
Description: cryo-EM of the complex, scFv as fiducial mark. From the text:
Mouse Mfsd2a was over-expressed in HEK293 cells and purified for structural studies. A fortuitous loss-of-function single point mutation Q67H (FIG. 6D) was identified that presumably arrests the transporter in an outward-facing conformation based on its location near the typical extracellular gate area in MFS transporters. It was theorized that this might reduce conformational heterogeneity and selected this variant for structural studies. The purified protein was biochemically stable and appeared monodisperse on size exclusion chromatography (FIG. 6A). To obtain the most homogenous samples for cryo-EM studies, the proteins were screened after being purified under various conditions. Mfsd2a purified in lauryl maltose neopentyl glycol/cholesteryl hemisuccinate/glycol-diosgenin (LMNG/CHS/GDN) detergent mixture was selected for further structural studies as particles appeared to be homogeneous in size and shape. Since Mfsd2a is small in size (59 kDa) with few features outside the micelle, it presents challenges for cryo-EM studies. To aid the particle alignment, we used a single-chain variable fragment (scFv) of antibody that binds to the extracellular side of Mfsd2a as a fiducial mark. This strategy permitted determination of the cryo-EM structure of Mfsd2a at 3.5 Å resolution (FIG. 1B; FIGS. 7A-7F).

B1: D1 antibody (with CDRs of SEQ ID NOs: 1-6) (antibody, V domains shown)
VH: AVTLDESGGGLQTPKGGLSLVCKASGFTFSSYDMAWVRQAPGKGLEWVAGITSTGSYTNYGAAVKGRATISRDNGQSTVRLQLNSLRAEDTATYFCAKSSFGCPYSCWYDIAGSIDAWGHGTEVIVSS
VL: ALTQPSSVSANPGETVKITCSGARYGYGWYQQKSPGSALVTLIYANNIRPSAIPSRFSGSKSGSTATLTITGVRAEDEAVYYCGNEDSITYAAFGAGTTLTVL
On to B1, for which the binding result in experiment [1] is recorded as “binds”.

B2: Anti-Mfsd2a scFv (ScFv of SEQ ID NO: 7) (scFv)
scFv: QPSSVSANPGETVKITCSGARYGYGWYQQKSPGSALVTLIYANNIRPSAIPSRFSGSKSGSTATLTITGVRAEDEAVYYCGNEDSITYAAFGAGTTLTVLGGSSRSSGGGGSSGGGGSAVTLDESGGGLQTPKGGLSLVCKASGFTFSSYDMAWVRQAPGKGLEWVAGITSTGSYTNYGAAVKGRATISRDNGQSTVRLQLNSLRAEDTATYFCAKSSFGCPYSCWYDIAGSIDAWGHGTEVIVS
notes: Isolated by phage display from chickens immunized with lipoparticles containing mouse Mfsd2a; Expressed as an scFv-Fc fusion with a human Fc; the scFv fragment was released by papain cleavage and purified by ion exchange; also called single-chain variable fragment
Regarding B2, the binding result in experiment [2] is recorded as “binds”.
